In article PMC5095587:

Biological target: ferredoxin isoform 2 from Arabidopsis thaliana (Arabidopsis thaliana) (UniProt P16972)
Assay: NMR titration; 15N HSQC of labelled ferredoxin with purified FusA added at varying stoichiometry up to 1:1; buffer with 0.1% LDAO, sodium phosphate; 600 MHz

In the case of “FusA_(1043) Δ20 (FusA from P. atrosepticum SCRI1043 lacking the 20 amino-acid N-terminal signal sequence) (from UniProt Q6CZW5 21-704) (receptor)”, the stoichiometry N is reported as 1.
